Measured values taken from patent publication US20160264649A1.

Tests used:
Experiment in all cases: cell-based or functional assay
[1] = target: HIV-1 Env of isolate QH0692.42 (subtype B) (HIV-1)
[2] = target: HIV-1 Env of isolate MGRM-Chronic-B-012 (subtype B) (HIV-1)
[3] = target: HIV-1 Env of isolate MG RM-C-027 (subtype C) (HIV-1)
[4] = target: HIV-1 92RW008 Env (HIV-1)
[5] = target: HIV-1 Env of isolate CAAN.A2 (subtype B) (HIV-1)
[6] = target: HIV-1 Env of isolate APV_6 (subtype B) (HIV-1)
[7] = target: HIV-1 Env of isolate APV_17 (subtype B) (HIV-1)
[8] = target: HIV-1 Env of isolate NL43 (subtype B) (HIV-1)
[9] = target: HIV-1 Env of isolate PVO.4 (subtype B) (HIV-1)
[10] = target: HIV-1 Env of isolate VLGCB3 (subtype B) (HIV-1)
[11] = target: HIV-1 Env of isolate 97ZA012 (subtype C) (HIV-1)
[12] = target: HIV-1 Env of isolate MGRM-Chronic-B-001 (subtype B) (HIV-1)
[13] = target: HIV-1 Env of isolate JRFL (subtype B) (HIV-1)
[14] = target: HIV-1 Env of isolate MGRM-Chronic-B-003 (subtype B) (HIV-1)
[15] = target: HIV-1 Env of isolate MG RM-C-019 (subtype C) (HIV-1)
[16] = target: HIV-1 Env of isolate MG RM-C-028 (subtype C) (HIV-1)
[17] = target: HIV-1 Env of isolate MGRM-Chronic-B-002 (subtype B) (HIV-1)
[18] = target: HIV-1 Env of isolate MG RM-C-026 (subtype C) (HIV-1)
[19] = target: HIV-1 Env of isolate SC422661.8 (subtype B) (HIV-1)
[20] = target: HIV-1 Env of isolate MGRM-Chronic-B-010 (subtype B) (HIV-1)
[21] = target: HIV-1 Env of isolate 93IN905 (subtype C) (HIV-1)
[22] = target: HIV-1 Env of isolate MG RM-C-025 (subtype C) (HIV-1)
[23] = target: HIV-1 Env of isolate MGRM-Chronic-B-024 (subtype B) (HIV-1)
[24] = target: HIV-1 Env of isolate 92 BR 020 (subtype B) (HIV-1)
[25] = target: HIV-1 Env of isolate MG RM-C-023 (subtype C) (HIV-1)
[26] = target: HIV-1 Env of isolate 98IN022 (subtype C) (HIV-1)
[27] = target: HIV-1 Env of isolate MGRM-Chronic-B-017 (subtype B) (HIV-1)
[28] = target: HIV-1 Env of isolate MG RM-C-020 (subtype C) (HIV-1)
[29] = target: HIV-1 Env of isolate 93MW959 (subtype C) (HIV-1)
[30] = target: HIV-1 Env of isolate 6535.3 (subtype B) (HIV-1)
[31] = target: HIV-1 Env of isolate MGRM-Chronic-B-020 (subtype B) (HIV-1)
[32] = target: HIV-1 Env of isolate MGRM-Chronic-B-023 (subtype B) (HIV-1)
[33] = target: HIV-1 Env of isolate MGRM-Chronic-B-008 (subtype B) (HIV-1)
[34] = target: HIV-1 Env of isolate MGRM-Chronic-B-018 (subtype B) (HIV-1)
[35] = target: HIV-1 Env of isolate MGRM-Chronic-B-004 (subtype B) (HIV-1)
[36] = target: HIV-1 Env of isolate TRO.11 (subtype B) (HIV-1)
[37] = target: HIV-1 Env of isolate SF162 (subtype B) (HIV-1) (UniProt P19550)
[38] = target: HIV-1 Env of isolate JRCSF (subtype B) (HIV-1) (UniProt P20871)
[39] = target: HIV-1 Env of isolate APV_13 (subtype B) (HIV-1)
[40] = target: HIV-1 Env of isolate MG RM-C-022 (subtype C) (HIV-1)
[41] = target: HIV-1 Env of isolate MGRM-Chronic-B-011 (subtype B) (HIV-1)
[42] = target: HIV-1 Env of isolate MG RM-C-024 (subtype C) (HIV-1)
[43] = target: HIV-1 Env of isolate THR0.18 (subtype B) (HIV-1)
[44] = target: HIV-1 Env of isolate TRJ04551.58 (subtype B) (HIV-1)
[45] = target: HIV-1 Env of isolate 93TH305 (subtype B) (HIV-1)

4993_K13 (PGT-141) (antibody), sequence (VH): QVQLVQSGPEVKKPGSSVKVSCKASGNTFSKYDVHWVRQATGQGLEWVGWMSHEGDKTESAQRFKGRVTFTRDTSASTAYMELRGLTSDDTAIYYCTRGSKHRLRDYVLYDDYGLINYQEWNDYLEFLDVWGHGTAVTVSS
4993_K13 (PGT-141) (antibody), sequence (VL): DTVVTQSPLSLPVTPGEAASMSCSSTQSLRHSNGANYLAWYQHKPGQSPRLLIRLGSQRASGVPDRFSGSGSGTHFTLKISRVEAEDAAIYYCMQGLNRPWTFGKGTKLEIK
4995_E20 (PGT-142) (antibody), sequence (VH): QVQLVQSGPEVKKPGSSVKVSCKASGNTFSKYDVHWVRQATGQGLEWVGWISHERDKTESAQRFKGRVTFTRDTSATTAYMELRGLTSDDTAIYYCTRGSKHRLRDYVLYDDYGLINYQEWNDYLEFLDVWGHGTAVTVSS
4995_E20 (PGT-142) (antibody), sequence (VL): as the sequence (VL) above

Substance: 4995_E20 (PGT-142) (antibody)
- IC50 [1]: > 50 µg/mL
- IC50 [2]: > 50 µg/mL
- IC50 [3]: 0.792 µg/mL
- IC50 [4]: 0.447 µg/mL
- IC50 [5]: > 50 µg/mL
- IC50 [6]: 4.72 µg/mL
- IC50 [7]: 0.628 µg/mL
- IC50 [8]: > 50 µg/mL
- IC50 [9]: 0.066 µg/mL
- IC50 [10]: > 50 µg/mL
- IC50 [11]: > 50 µg/mL
- IC50 [12]: > 50 µg/mL
- IC50 [13]: > 50 µg/mL
- IC50 [14]: 0.484 µg/mL
- IC50 [15]: 0.003 µg/mL
- IC50 [16]: 2.12 µg/mL
- IC50 [17]: > 50 µg/mL
- IC50 [18]: > 50 µg/mL
- IC50 [19]: 3.15 µg/mL
- IC50 [20]: > 50 µg/mL
- IC50 [21]: 0.001 µg/mL
- IC50 [22]: 0.183 µg/mL
- IC50 [23]: 0.005 µg/mL
- IC50 [24]: 15.1 µg/mL
- IC50 [25]: 0.087 µg/mL
- IC50 [26]: 0.001 µg/mL
- IC50 [27]: 0.076 µg/mL
- IC50 [28]: 0.446 µg/mL
- IC50 [29]: 0.001 µg/mL
- IC50 [30]: > 50 µg/mL
- IC50 [31]: > 50 µg/mL
- IC50 [32]: 0.486 µg/mL
- IC50 [33]: > 50 µg/mL
- IC50 [34]: 0.323 µg/mL
- IC50 [35]: 0.172 µg/mL
- IC50 [36]: 0.27 µg/mL
- IC50 [37]: > 50 µg/mL
- IC50 [38]: 0.01 µg/mL
- IC50 [39]: > 50 µg/mL
- IC50 [40]: 0.086 µg/mL
- IC50 [41]: 0.994 µg/mL
- IC50 [42]: 0.03 µg/mL
- IC50 [43]: 0.012 µg/mL
- IC50 [44]: > 50 µg/mL
- IC50 [45]: 5.86 µg/mL

Substance: 4993_K13 (PGT-141) (antibody)
- IC50 [1]: > 50 µg/mL
- IC50 [2]: > 50 µg/mL
- IC50 [3]: 3.27 µg/mL
- IC50 [4]: 0.579 µg/mL
- IC50 [5]: > 50 µg/mL
- IC50 [6]: 14.2 µg/mL
- IC50 [7]: 0.59 µg/mL
- IC50 [8]: > 50 µg/mL
- IC50 [9]: 0.113 µg/mL
- IC50 [10]: > 50 µg/mL
- IC50 [11]: > 50 µg/mL
- IC50 [12]: > 50 µg/mL
- IC50 [13]: > 50 µg/mL
- IC50 [14]: 0.4 µg/mL
- IC50 [15]: 0.008 µg/mL
- IC50 [16]: 13.8 µg/mL
- IC50 [17]: > 50 µg/mL
- IC50 [18]: > 50 µg/mL
- IC50 [19]: 1.66 µg/mL
- IC50 [20]: > 50 µg/mL
- IC50 [21]: 0.001 µg/mL
- IC50 [22]: 0.247 µg/mL
- IC50 [23]: 0.011 µg/mL
- IC50 [24]: 20.3 µg/mL
- IC50 [25]: 0.153 µg/mL
- IC50 [26]: 0.001 µg/mL
- IC50 [27]: 0.147 µg/mL
- IC50 [28]: 1.34 µg/mL
- IC50 [29]: 0.003 µg/mL
- IC50 [30]: > 50 µg/mL
- IC50 [31]: > 50 µg/mL
- IC50 [32]: 0.318 µg/mL
- IC50 [33]: > 50 µg/mL
- IC50 [34]: 0.572 µg/mL
- IC50 [35]: 0.586 µg/mL
- IC50 [36]: 0.383 µg/mL
- IC50 [37]: > 50 µg/mL
- IC50 [38]: 0.009 µg/mL
- IC50 [39]: > 50 µg/mL
- IC50 [40]: 0.381 µg/mL
- IC50 [41]: 2.24 µg/mL
- IC50 [42]: 0.101 µg/mL
- IC50 [43]: 0.007 µg/mL
- IC50 [44]: > 50 µg/mL
- IC50 [45]: > 50 µg/mL
